# In paper PMC3393671:
# Changes are numbered by the printed parent chain. In names and notes the source's numbering stands.
# B1: GST-Irga6, Q9QZ85 T102D (protein)
# chain: MGQLFSSPKSDENNDLPSSFTGYFKKFNTGRKIISQEILNLIELRMRKGNIQLTNSAISDALKEIDSSVLNVAVTGETGSGKSSFINTLRGIGNEEEGAAKDGVVEVTMERHPYKHPNIPNVVFWDLPGIGSTNFPPNTYLEKMKFYEYDFFIIISATRFKKNDIDIAKAISMMKKEFYFVRTKVDSDITNEADGKPQTFDKEKVLQDIRLNCVNTFRENGIAEPPIFLLSNKNVCHYDFPVLMDKLISDLPIYKRHNFMVSLPNITDSVIEKKRQFLKQRIWLEGFAADLVNIIPSLTFLLDSDLETLKKSMKFYRTVFGVDETSLQRLARDWEIEVDQVEAMIKSPAVFKPTDEETIQERLSRYIQEFCLANGYLLPKNSFLKEIFYLKYYFLDMVTEDAKTLLKEICL
# B2: GST-Irga6, Q9QZ85 V205R (protein)
# chain: B1 chain with D102T, V205R
# B3: GST-Irga6, Q9QZ85 N191R (protein)
# chain: B1 chain with D102T, N191R
# B4: GST-Irga6, Q9QZ85 K196D (protein)
# chain: B1 chain with D102T, K196D
# B5: GST-Irga6, Q9QZ85 N220R (protein)
# chain: B1 chain with D102T, N220R
# B6: GST-Irga6, Q9QZ85 C213R (protein)
# chain: B1 chain with D102T, C213R
# B7: GST-Irga6, Q9QZ85 G195R (protein)
# chain: B1 chain with D102T, G195R
# B8: GST-Irga6, Q9QZ85 E142R (protein)
# chain: B1 chain with D102T, E142R
# B9: GST-Irga6, Q9QZ85 Q198E (protein)
# chain: B1 chain with D102T, Q198E
# B10: GST-Irga6, Q9QZ85 G103R (protein)
# chain: B1 chain with D102T, G103R
# B11: GST-Irga6, Q9QZ85 K169E (protein)
# chain: B1 chain with D102T, K169E
# B12: GST-Irga6, Q9QZ85 T108D (protein)
# chain: B1 chain with D102T, T108D
# Target: ROP5 of T. gondii strain RH-YFP (isoforms not told apart), F2YGR7
# Assay: pull-down (quantitated Western blot)
# Details: chain shown with the change; 25 µg protein/100 µl 1:1 bead suspension; RH-YFP strain T. gondii lysates; 3E2 antibody (anti-ROP5); GST signal subtracted; parent: est. 100; read off a plot
# Chain of ROP5 of T. gondii strain RH-YFP (isoforms not told apart), F2YGR7 (F2YGR7 25-549): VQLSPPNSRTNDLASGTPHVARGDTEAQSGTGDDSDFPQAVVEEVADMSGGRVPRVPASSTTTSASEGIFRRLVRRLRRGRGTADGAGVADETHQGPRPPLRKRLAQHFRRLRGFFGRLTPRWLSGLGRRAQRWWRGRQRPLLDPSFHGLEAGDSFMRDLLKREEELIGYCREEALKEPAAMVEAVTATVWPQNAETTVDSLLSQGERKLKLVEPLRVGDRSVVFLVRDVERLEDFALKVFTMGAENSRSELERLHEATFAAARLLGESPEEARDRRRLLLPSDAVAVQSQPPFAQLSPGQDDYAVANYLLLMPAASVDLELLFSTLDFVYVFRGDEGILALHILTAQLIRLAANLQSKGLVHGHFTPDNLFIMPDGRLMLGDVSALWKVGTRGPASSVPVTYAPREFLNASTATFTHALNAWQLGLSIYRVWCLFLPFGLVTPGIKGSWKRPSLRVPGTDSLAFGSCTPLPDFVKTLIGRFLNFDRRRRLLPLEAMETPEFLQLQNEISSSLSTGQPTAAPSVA
row,Binder,percent of parent (% of wild-type intensity)
1,B1,110
2,B2,10
3,B3,30
4,B4,1.8
5,B5,20
6,B6,3.3
7,B7,6.5
8,B8,73
9,B9,32
10,B10,43
11,B11,22
12,B12,77
